Measurements published in paper PMC4150798 (Nucleic Acids Research, 2014).

Assays:
[1] = molecular target: CPEB4 RRM1–RRM2 (463–665) (human) (UniProt Q17RY0); test: native MS
[2] = molecular target: CPEB4 RRM1–RRM2 (463–665) (human) (UniProt Q17RY0); test: semi-native SDS PAGE
semi-native SDS PAGE = molecular target: the molecule itself; test: semi-native SDS PAGE

Row | Molecule | stoichiometry N [1] | maximum dimeric population [2] | stoichiometry N [2] | stoichiometry N (semi-native SDS PAGE)
1 | CPEB4 RRM1–RRM2 (463–665) (from UniProt Q17RY0 463-665) (domain or fragment) | 2 | < 10% | 2 | –
2 | CPEB4 RRM1 (463–573) (domain or fragment, human, UniProt Q17RY0 463-573, looked up) NGERVERYSRKVFVGGLPPDIDEDEITASFRRFGPLIVDWPHKAESKSYFPPKGYAFLLFQDESSVQALIDACIEEDGKLYLCVSSPTIKDKPVQIRPWNLSDSDFVMDGS | – | – | – | 2
